Consider three molecules from patent US20240301052A1 (LANOVA MEDICINES DEVELOPMENT, published 2024).

Where two headings read alike, the source gives them in different places.

The target of assay [1] is T1, human SLC34A2 (human, UniProt O95436 1-690).
T1 construct: whole, on cells; also called human solute carrier 34 A2; NaPi2b
T1 sequence (looked up): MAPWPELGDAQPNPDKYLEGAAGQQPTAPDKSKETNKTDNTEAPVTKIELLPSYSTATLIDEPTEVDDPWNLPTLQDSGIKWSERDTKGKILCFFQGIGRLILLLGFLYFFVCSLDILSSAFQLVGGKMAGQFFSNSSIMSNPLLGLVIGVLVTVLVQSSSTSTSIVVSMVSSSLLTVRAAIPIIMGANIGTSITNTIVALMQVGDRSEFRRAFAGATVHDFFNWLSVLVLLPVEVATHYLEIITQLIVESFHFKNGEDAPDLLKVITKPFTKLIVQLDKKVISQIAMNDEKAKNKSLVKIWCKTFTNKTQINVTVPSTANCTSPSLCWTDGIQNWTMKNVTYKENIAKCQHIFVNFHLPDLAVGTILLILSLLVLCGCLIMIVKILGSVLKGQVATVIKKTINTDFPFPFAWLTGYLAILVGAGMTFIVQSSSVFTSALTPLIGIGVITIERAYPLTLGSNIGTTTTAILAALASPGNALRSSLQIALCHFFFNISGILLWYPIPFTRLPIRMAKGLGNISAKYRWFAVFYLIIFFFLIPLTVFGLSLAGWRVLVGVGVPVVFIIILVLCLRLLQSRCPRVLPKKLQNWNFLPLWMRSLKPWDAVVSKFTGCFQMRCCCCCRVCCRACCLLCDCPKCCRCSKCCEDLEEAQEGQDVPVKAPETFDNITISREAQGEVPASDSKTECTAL
Briefly: FACS, RMG-1 cells. The gist of the method: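 Flow-cytometric binding of chimeric antibodies (8-point, 4-fold dilutions from 200 nM) to RMG-1 cells, 60 min at 4° C, followed by fluorescent secondary antibody for 30 min at 4° C.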

The target in assay [2] is T1, human SLC34A2. Put plainly: FACS, OVCAR3 cells. The gist of the method:
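Chimeric hIgG1 antibodies titrated from 200 nM (4-fold, 8 points) on OVCAR3 cells or HEK293 cells expressing human SLC34A2, 60 min at 4° C. Bound antibody detected with fluorescent secondary antibody (30 min, 4° C) and measured by flow cytometry.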

Assay [3] has as its target T1, human SLC34A2. Put plainly: FACS, OVCAR3 cells. The source holds these as a separate data set.
Assay [4] has as its target T1, human SLC34A2. Put plainly: cell-based or functional assay.
The target of assay [5] is T1, human SLC34A2. Briefly: cell-based or functional assay. This is another data set of the same source.
Assay [6] concerns the target T1, human SLC34A2. Briefly: FACS, HEK293/human SLC34A2 cells. As to the method: Briefly, OVCAR3 cells or HEK293 cells expressing human SLC34A2 were incubated with chimeric antibodies (from 200 nM, 4 folds dilution, 8 points). After incubation at 4° C. for 60 minutes, the cells were washed with FACS buffer twice, then stained with fluorescent conjugated secondary antibody at 4° C. for 30 minutes. After that the cells were washed twice and analyzed by flow cytometry.

Assay [7] addresses T1, human SLC34A2. Briefly: FACS, HEK293/human SLC34A2 cells. The method, then:
The PTM-derisked VH chains were first tested for their impact on target binding. Cell based binding of PTM Abs on human SLC34A2 expressing cells were assessed using flow cytometry. Briefly, the HEK293/H_SLC34A2 cells were incubated with PTM Abs (from 200 nM, 4 folds dilution, 8 points). After incubation at 4° C. for 60 minutes, the cells were washed with FACS buffer twice, then stained with fluorescent conjugated secondary antibody at 4° C. for 30 minutes. After that the cells were washed twice and analyzed by flow cytometry.
The source holds these as a separate data set.

The target in assay [8] is T2, Rhesus SLC34A2 (Rhesus, UniProt F7HDA3 1-690).
T2 construct: whole, on cells
T2 sequence: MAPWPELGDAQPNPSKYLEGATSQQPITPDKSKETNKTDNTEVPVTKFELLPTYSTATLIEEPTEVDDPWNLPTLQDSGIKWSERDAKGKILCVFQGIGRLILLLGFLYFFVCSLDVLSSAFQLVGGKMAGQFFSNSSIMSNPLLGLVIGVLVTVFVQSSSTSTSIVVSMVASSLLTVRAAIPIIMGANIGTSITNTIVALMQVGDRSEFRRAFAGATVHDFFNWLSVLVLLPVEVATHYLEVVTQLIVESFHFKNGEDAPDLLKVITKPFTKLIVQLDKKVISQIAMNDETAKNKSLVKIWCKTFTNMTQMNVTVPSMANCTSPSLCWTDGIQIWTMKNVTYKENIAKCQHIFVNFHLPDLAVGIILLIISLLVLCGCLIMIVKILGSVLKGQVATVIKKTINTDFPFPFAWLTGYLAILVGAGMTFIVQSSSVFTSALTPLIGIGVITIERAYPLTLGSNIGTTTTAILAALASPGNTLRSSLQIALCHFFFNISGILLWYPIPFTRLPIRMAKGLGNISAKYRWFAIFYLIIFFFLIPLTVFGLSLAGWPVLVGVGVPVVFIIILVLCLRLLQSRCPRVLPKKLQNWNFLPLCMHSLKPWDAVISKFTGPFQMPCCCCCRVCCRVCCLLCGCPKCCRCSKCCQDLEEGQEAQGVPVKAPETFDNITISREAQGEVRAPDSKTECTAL
Put plainly: FACS, HEK293/Rhesus SLC34A2 cells. The method, then:
Briefly, the Rhesus SLC34A2 expressing HEK293 engineering cells (HEK293/Rhesus_SLC34A2) were incubated with chimeric Abs (from 200 nM, 4 folds dilution, 8 points). After incubation at 4° C. for 60 minutes, the cells were washed with FACS buffer twice, then stained with fluorescent conjugated secondary antibody at 4° C. for 30 minutes. After that the cells were washed twice and analyzed by flow cytometry.

The target of assay [9] is T2, Rhesus SLC34A2. Put plainly: FACS, HEK293/Rhesus SLC34A2 cells. The source holds these as a separate data set.
In assay [10] the target is T3, Cynomolgus SLC34A2 (Cynomolgus, UniProt A0A2K5UHY1 1-690).
T3 construct: whole, on cells; also called Cyno SLC34A2
T3 sequence: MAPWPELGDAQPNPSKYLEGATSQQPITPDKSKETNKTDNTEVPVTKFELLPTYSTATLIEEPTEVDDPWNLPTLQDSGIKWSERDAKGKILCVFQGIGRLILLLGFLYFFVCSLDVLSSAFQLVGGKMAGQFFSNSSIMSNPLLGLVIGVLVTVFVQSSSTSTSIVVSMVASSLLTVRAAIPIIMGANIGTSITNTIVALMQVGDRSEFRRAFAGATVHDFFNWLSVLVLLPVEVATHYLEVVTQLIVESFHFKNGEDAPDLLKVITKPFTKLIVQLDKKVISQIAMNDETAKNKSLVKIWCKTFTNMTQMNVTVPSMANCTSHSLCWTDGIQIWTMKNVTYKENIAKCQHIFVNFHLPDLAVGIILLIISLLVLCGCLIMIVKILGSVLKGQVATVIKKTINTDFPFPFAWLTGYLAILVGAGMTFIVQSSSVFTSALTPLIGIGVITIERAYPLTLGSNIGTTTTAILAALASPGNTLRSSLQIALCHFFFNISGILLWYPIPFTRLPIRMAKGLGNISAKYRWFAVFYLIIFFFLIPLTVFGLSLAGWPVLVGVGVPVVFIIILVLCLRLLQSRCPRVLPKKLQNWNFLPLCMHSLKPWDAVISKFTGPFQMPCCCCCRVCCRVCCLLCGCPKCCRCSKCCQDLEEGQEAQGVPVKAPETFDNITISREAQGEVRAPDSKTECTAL
Put plainly: FACS, cells expressing Cynomolgus SLC34A2.

The target of assay [11] is T1, human SLC34A2. Put plainly: FACS, RMG-1 cells. As to the method: (§1) In another testing, cell based binding of hu Abs on human SLC34A2 expressing cells were assessed using flow cytometry. Briefly, the HEK293/H_SLC34A2, OVCAR3 and RMG-1 cells were incubated with hu Abs. After incubation at 4° C. for 60 minutes, the cells were washed with FACS buffer twice, then stained with fluorescent conjugated secondary antibody at 4° C. for 30 minutes. After that the cells were washed twice and analyzed by flow cytometry.
The source holds these as a separate data set.

Assay [12] has as its target T1, human SLC34A2. Put plainly: FACS, OVCAR3 cells. As to the method: The binding of these humanized antibodies to OVCAR3 cells was evaluated as described above, and the results are shown in FIG. 12A-D and Tables 16A-D.
This is another data set of the same source.

For assay [13], the target named is T1, human SLC34A2. Put plainly: FACS, OVCAR3 cells. As to the method:
as §1
The source holds these as a separate data set.

Assay [14] addresses T1, human SLC34A2. Put plainly: cell-based or functional assay. This is another data set of the same source.
The target in assay [15] is T1, human SLC34A2. Briefly: FACS, HEK293/human SLC34A2 cells. As to the method:
as §1
The source holds these as a separate data set.

For assay [16], the target named is T2, Rhesus SLC34A2. Put plainly: FACS, HEK293/Rhesus SLC34A2 cells. The source holds these as a separate data set.

B1: xi90G10H7 hIgG1 (antibody, V domains shown)
VH: QVQLQQPGAVLVKPGASVKMSCKASGYTFTSYIIHWVKQTPGQGLEWVGAIYPGNGDASSIQKFKGKATLTVDKSSSTAYMQLSSLTSADSAVYYCARGHYYGSAAWFAYWGQGTLVTVSA
VL: DILLTQSPAILSVSPGERVSFSCRASQNIGTGIHWYQQRTNGSLRLLIKYASESISGIPSRFSGSGSGTDFTLSINSVESEDIADYYCQQSNSWPLTFGAGTKLELK
notes: chimeric, hIgG1
For B1, the half-maximal effective concentration (EC50) in assay [1] stood at 2.77 nM; in assay [2], 2.14 nM; in assay [3], 3.9 nM; in assay [6], 1.52 nM; in assay [7] it was 1.14 nM; in assay [8] it was 2.19 nM. The 50% effective concentration (EC50) in assay [9] was determined as 3.5 nM; in assay [10] it was 2.4 nM. Besides, the “Top (MFI)” value in assay [1] worked out at 9920 MFI; in [2] it was 43300 MFI; in [3], 72900 MFI; in assay [6], 114000 MFI; in [7] it was 32200 MFI; in assay [8], 18500 MFI. Besides, the “Top (MFI)” value in assay [9] worked out at 47400 MFI; in assay [10], 4560 MFI. Besides, in [4], the “ADCC reporter EC50” value came out at 2.3 nM. In assay [4], the “ADCC reporter Top (MFI)” value was 397000 MFI. Further, in [5], the “cytotoxicity EC50” value worked out at 0.28 nM. The “cytotoxicity Inhibition %” value in assay [5] worked out at 103%.

B2: 30H9B8F9 VH_P1/VL hIgG1 (antibody, V domains shown)
VH: QVQLQQPGAELVKPGASVKMSCKTSGYTFTTNNMHWVKQTPGQGLEWIGAIYPGSGATAYNQKFKGKATLTADKSSSTAYMQLSSLTSEASAVYYCARGMYGHGAMDYWGQGTSVIVSS
VL: DIVMTQSHKFMSRSVGDRVRITCKASQDVGTAVAWYQQKPGQSPKLLIYWATTRHSGVPDRFTGSGSGTDFIFTISNVQSEDLADYFCQQYSSNPLTFGAGTKLELK
notes: PTM-derisked chimeric, hIgG1; that P1 is the N=>S version follows from the humanized .p1 chains; also called 30H9B8F9.p1 hIgG1
For B2, the EC50 in assay [11] is 1.09 nM; in assay [3], 1.5 nM; in assay [12], 0.68 nM; in assay [13], 0.37 nM; in [7] it was 0.89 nM; in [15], 1.18 nM. For the same molecule, the EC50 in [9] was 2 nM; in [16], 0.8 nM. The Top in assay [11] is 11100 MFI; in assay [15], 35700 MFI. The “Top (MFI)” value was 70400 MFI in [3]; 28700 MFI in [12]; 31700 MFI in assay [7]; 47400 MFI in [9]; 17000 MFI in [16]. Besides, the “ADCC reporter EC50” value in [14] stood at 2.52 nM. In addition, the “ADCC reporter Top (MFI)” value in assay [14] was 126000 MFI.

B3: 62G10E4G8 VH_P3/VL hIgG1 (antibody, V domains shown)
VH: QVQLQQSGAEVVKPGASVKMSCKASGYTFPSYITHWVKQTPGQGLEWIGAIYPGNADTSYIQKFKGKATLTADKSSSTAYMQLSSLTSEDSAVYYCARGTYGTSAWFTYWGQGTLVTVSA
VL: DIVLTQSPATLSVTPGDSVSLSCRARQNIGNNLYWYQQKSHESPRLLIKYASQSISGIPSRFSGSGSGTDFTLTINSVETEDFGVYFCQQSFSWPLTFGAGTKLELK
notes: PTM-derisked chimeric, hIgG1; that P3 is the NA version follows from the humanized .p3 chains; also called 62G10E4G8.p3 hIgG1
As for B3, the EC50 amounted to 14.8 nM in assay [11]; 9.1 nM in assay [3]; 6.98 nM in assay [12]; 6.98 nM in [13]; 2.73 nM in assay [7]; 9.08 nM in [15]. Moreover, the 50% effective concentration (EC50) in assay [9] was determined as 4.3 nM; in [16] it was 5 nM. The results for the Top in assay [11] and in [15] were 11200 MFI and 35700 MFI, respectively. Further, the “Top (MFI)” value in assay [3] was 72500 MFI; in assay [12], 30300 MFI; in assay [7], 30800 MFI; in assay [9], 36500 MFI; in assay [16], 14400 MFI. Further, the “ADCC reporter EC50” value in assay [14] amounted to 4.23 nM. In addition, the “ADCC reporter Top (MFI)” value in assay [14] came out at 122000 MFI.
